Measured values from patent US20120064090A1, “THERAPEUTIC AGENT FOR CANCER HAVING REDUCED SENSITIVITY TO MOLECULAR TARGET DRUG AND PHARMACEUTICAL COMPOSITION FOR ENHANCING SENSITIVITY TO MOLECULAR TARGET DRUG” (KRINGLE PHARMA INC., priority 2009, published 2012).

Experiments:
[1] = tested on: tumor formed of PC-9 and MRC-5 cells; test: Xenograft tumor (PC-9 + MRC-5) transplanted into SCID mice; assay type: in vivo; settings: PC-9 + MRC-5 s.c., days 4 to 16, gefitinib 25 mg/kg/day oral, antibody 5 mg/kg/day i.p., NK4 9 mg/kg/day i.p., FIG. 6
Procedure: SCID mice (female, 5 weeks old) were purchased from CLEA Japan.
100 μL of a cell suspension containing PC-9 (5×10^6 cells) and MRC-5 (5×10^6 cells) was subcutaneously inoculated from the back skin of each SCID mouse. Four days later, mice bearing a tumor exceeding 4 mm in diameter were randomly divided into 6 groups (5 mice per group) as shown in Table 1.
In gefitinib-treated groups (groups 4, 5 and 6 in Table 1), gefitinib (25 mg/kg/day) was orally administered once daily in the morning for 13 days from 4 days to 16 days after cell inoculation. In gefitinib-non-treated groups (groups 1, 2 and 3 in Table 1), a water containing 1% Tween80 was orally administered once daily in a similar manner to the above. In anti-HGF neutralizing antibody-treated groups (groups 2 and 5 in Table 1), the anti-HGF neutralizing antibody (5 mg/kg/day) was intraperitoneally administered once daily immediately after gefitinib administration for 13 days from 4 days to 16 days after cell inoculation. In NK4-treated groups (groups 3 and 6 in Table 1), NK4 (9 mg/kg/day) was intraperitoneally administered in divided portions twice a day in the morning immediately after gefitinib administration and in the evening for 13 days from 4 days to 16 days after cell inoculation.
The width and length of tumor were measured every other day, and the tumor area (width×length) was calculated. […]

H1975 [2] = test: Effects of anti-human HGF neutralizing antibody or NK4 on H1975 with HGF-induced CL-387,785-resistance; assay type: cell-based; settings: CL-387,785 0.3 μM, HGF 50 ng/mL, antibody 2 μg/mL, NK4 0.3 μM, 72 hours, FIG. 10
Procedure: In the same manner as in the above (a), H1975 was seeded at 2×10^3 cells/well on 96-well plates. […] The degree of cell growth was measured by the MTT method and the growth rate was calculated in the same manner as in the above (a).

PC-9 = test: Effects of SU11274 on PC-9 with HGF-induced gefitinib-resistance; assay type: cell-based, human; settings: HGF 20 ng/mL, gefitinib 0.3 μM, antibody 1 μg/mL, NK4 0.3 μM, SU11274 0.3 μM, 72 hours, FIG. 11
Procedure: PC-9 was seeded at 2×10^3 cells/well on 96-well plates and cultured for 24 hours. […] After that, 50 μL of an MTT solution (2 mg/mL, manufactured by Sigma) was added and incubation was performed at 37° C. for 2 hours. The culture media were removed, and dark blue crystals were dissolved by adding 100 μL of DMSO. The absorbance was measured with a microplate reader MTP-120 (Corona Electric Co., Ltd.) at the detection and reference wavelengths of 550 nm and 630 nm, respectively. The growth rate was shown as a relative value based on an untreated control. Each experiment was performed in triplicate and repeated thrice independently.

H1975 [3] = test: Effects of SU11274 on H1975 with HGF-induced CL-387,785-resistance; assay type: cell-based, human; settings: CL-387,785 0.3 μM, HGF 50 ng/mL, antibody 2 μg/mL, NK4 0.3 μM, 72 hours, FIG. 12
Procedure: H1975 was seeded at 2×10^3 cells/well on 96-well plates and cultured for 24 hours. […] The degree of cell growth was measured by the MTT method and the growth rate was calculated in the same manner as in the above (a).

B1: NK4 (protein, listed as Homo sapiens)
chain 1: MWVTKLLPALLLQHVLLHLLLLPIAIPYAEGQRKRRNTIHEFKKSAKTTLIKIDPALKIKTKKVNTADQCANRCTRNKGLPFTCKAFVFDKARKQCLWFPFNSMSSGVKKEFGHEFDLYENKDYIRNCIIGKGRSYKGTVSITKSGIKCQPWSSMIPHEHSFLPSSYRGKDLQENYCRNPRGEEGGPWCFTSNPEVRYEVCDIPQCSEVECMTCNGESYRGLMDHTESGKICQRWDHQTPHRHKFLPERYPDKGFDDNYCRNPDGQPRPWCYTLDPHTRWEYCAIKTCADNTMNDTDVPLETTECIQGQGEGYRGTVNTIWNGIPCQRWDSQYPHEHDMTPENFKCKDLRENYCRNPDGSESPWCFTTDPNIRVGYCSQIPNCDMSHGQDCYRGNGKNYMGNLSQTRSGLTCSMWDKNMEDLHRHIFWEPDASKLNENYCRNPDDDAHGPWCYTGNPLIPWDYCPISRCEGDTTPTIV
chain 2: MWVTKLLPALLLQHVLLHLLLLPIAIPYAEGQRKRRNTIHEFKKSAKTTLIKIDPALKIKTKKVNTADQCANRCTRNKGLPFTCKAFVFDKARKQCLWFPFNSMSSGVKKEFGHEFDLYENKDYIRNCIIGKGRSYKGTVSITKSGIKCQPWSSMIPHEHSYRGKDLQENYCRNPRGEEGGPWCFTSNPEVRYEVCDIPQCSEVECMTCNGESYRGLMDHTESGKICQRWDHQTPHRHKFLPERYPDKGFDDNYCRNPDGQPRPWCYTLDPHTRWEYCAIKTCADNTMNDTDVPLETTECIQGQGEGYRGTVNTIWNGIPCQRWDSQYPHEHDMTPENFKCKDLRENYCRNPDGSESPWCFTTDPNIRVGYCSQIPNCDMSHGQDCYRGNGKNYMGNLSQTRSGLTCSMWDKNMEDLHRHIFWEPDASKLNENYCRNPDDDAHGPWCYTGNPLIPWDYCPISRCEGDTTPTIV
notes: recombinant human NK4 protein; N-terminal hairpin domain and four kringle domains of HGF α chain, antagonist of HGF
tumor volume / tumor growth over time [1]: tumor growth rate was slightly reduced | inhibition of HGF-induced hyposensitivity of H1975 to CL-387,785 (H1975 [2]): inhibited the HGF-induced hyposensitivity | inhibition of HGF-induced hyposensitivity of PC-9 to gefitinib (PC-9): significantly inhibited | inhibition of HGF-induced hyposensitivity of H1975 to CL-387,785 (H1975 [3]): significantly inhibited
